What was measured:
[1] = NanoDSF melting temperature / thermal stability; assay type: physicochemical
Protocol: Each of the GLP-2 peptibodies was tested by determining melting temperature with nanodifferential scanning fluorimetry (NanoDSF). NanoDSF is a measurement of protein stability over a range of temperatures, with a temperature ramp employed. The stability of tryptophan is measured by fluorescence, as reflected in a ratio of fluorescence at 350 nm to fluorescence at 330 nm. From the assay, one or more melting temperatures are determined. Because a protein in a certain state is understood to have a melting temperature, the number of melting temperatures observed reflects the number of different states.
(§1) Stability analysis was then performed using SEC-MALS and NanoDSF. For SEC-MALS, a Sepax Zenix C-150 column was used. The mobile phase buffer was 1× PBS with a final concentration of 400 mM NaCl. The flow rate was 0.8 mL per minute. 20 micrograms of total protein was injected. For NanoDSF, 10 microliters of sample was used, without normalization of the samples.
as §1

human GLP-2R = molecular target: T1, human GLP-2R (Homo sapiens, UniProt O95838); assay: cAMP Hunter eXpress GLP2R CHO-K1 GPCR assay; assay type: cell-based
T1 construct: host or cells: CHO-K1
T1 sequence (O95838 1-553): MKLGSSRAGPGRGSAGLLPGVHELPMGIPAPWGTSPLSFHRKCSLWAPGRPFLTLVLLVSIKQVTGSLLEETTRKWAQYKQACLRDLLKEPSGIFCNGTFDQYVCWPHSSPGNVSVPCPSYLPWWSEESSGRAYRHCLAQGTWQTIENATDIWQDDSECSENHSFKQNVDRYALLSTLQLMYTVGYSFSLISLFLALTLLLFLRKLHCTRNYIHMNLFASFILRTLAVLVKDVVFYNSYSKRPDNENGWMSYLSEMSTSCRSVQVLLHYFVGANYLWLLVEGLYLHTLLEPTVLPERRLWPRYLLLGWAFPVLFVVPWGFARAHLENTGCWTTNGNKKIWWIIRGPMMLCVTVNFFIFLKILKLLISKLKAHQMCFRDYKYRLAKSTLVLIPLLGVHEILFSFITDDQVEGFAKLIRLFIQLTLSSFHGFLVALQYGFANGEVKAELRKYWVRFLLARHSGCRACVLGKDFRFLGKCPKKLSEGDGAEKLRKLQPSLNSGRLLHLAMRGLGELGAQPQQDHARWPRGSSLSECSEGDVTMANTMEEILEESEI
Protocol: The cAMP Hunter™ assay is based on enzyme fragment complementation (EFC). In EFC assay, the enzyme donor is fused to cAMP. Increased intracellular cAMP due to GLP2R activation competes with ED-cAMP for antibody. Unbound ED-cAMP complements the enzyme acceptor to form active beta galactosidase, which subsequently produces a luminescent signal.
The CHO-K1 cell line used is overexpressing human GLP-2R (Genbank accession number NM004246.1). […] Their activities were assayed via measurement of the concentration of cAMP in the media.

[2] = Rat pharmacokinetics, intravenous dosing; assay type: in vivo, Sprague-Dawley rats; conditions: single dose 1 mg/ml
Protocol: (§2) In the rat, four pharmacokinetic parameters were measured for Gattex® (a GLP-2 peptide having the A2G mutation): CL, Vc, Vt and Q. The same pharmacokinetic parameters were also measured for GLP-2 peptibodies A, B, E, J, K, L, M, O and P. The data is shown in Table 4. Male Sprague-Dawley rats (3 animals per group) were injected intravenously either via a jugular vein or tail vein catheter. A singles dose of test article was injected at a dose level of 1 mg/ml. The test articles were formulated in PBS pH 7.4 at a concentration of Blood samples were taken 0.083, 0.167, 0.33, 0.5, 1, 2, 6, 24, 48, 72, 120, 168, 240, and 336 hours post dose. Blood samples were collected into heparinized tubes and centrifuged for 5 minutes at 2000 xg within 10 minutes of collection. 100 μL of plasma were transferred to a 1.5 ml Eppendorf tube containing 2 μL of 50 mM PMSF. After mixing, the plasma samples were frozen at −80° C. until analysis.

[3] = Rat pharmacokinetics, subcutaneous dosing; assay type: in vivo, Sprague-Dawley rats; conditions: single dose 1 mg/ml
Protocol: as §2, with “5.” for “4.”, “subcutaneously into the intra-scapular region of the animal.” for “intravenously either via a jugular vein or tail vein catheter.”, “[…]” for “1.5”, “mixing” for “mixing,”, “analysis. Meso Scale Discovery (MSD) ELISA was undertaken to assay for the concentration of the GLP-2 peptibodies.” for “analysis.”
A sandwich immunoassay was developed using either an anti-Human IgG1 Fc antibody or an anti-human albumin antibody for capture of the peptibody and a sulfotag labeled anti GLP-2 antibody for detection.

[4] = Projection of intravenous and subcutaneous PK parameters for humans; set-up: species or system human
Protocol: While a dose of 30 μg/kg once weekly (QW) is projected from the cynomolgus monkey PK data, the dose should be ten times higher (300 μg/kg) to adjust for the difference in in vivo potency.

GLP-2 peptibody K: GLP-2[A2G]-GGGGSGGGGSGGGGS linker-IgG1 Fc (LALA) with C-terminal lysine; SEQ ID NO: 10
NanoDSF melting temperature 1 ([1]; first transition): 1 = 67.5 °C
NanoDSF melting temperature 2 ([1]; second transition): 2 = 79.7 °C
reduction of activity vs GLP-2[A2G] (human GLP-2R): about five-fold
CL [2]: 53.7 mL/day/kg
Q [2]: 61 mL/day/kg
Vc [2]: 42.2 mL/kg
Vt [2]: 46.4 mL/kg
CL [3]: 68 mL/day/kg
Vc [3]: 114 mL/kg
ka [3]: K (0.62 ka/day,
Vc [4]: 38.5 mL/kg
Vt [4]: 36.1 mL/kg
ka [4]: 1.40 day⁻¹
CL (value in parentheses) ([4]; exponent on CL 0.85, monkey 3.5 kg, human 70 kg): 15.4 mL/day/kg
CL ([4]; first value of cell): 24.2 mL/day/kg
F ([4]; first value of cell): 86%
Q ([4]; first value of cell): 56.4 mL/day/kg
F (value in parentheses) ([4]; value in parentheses): 60%
Q (value in parentheses) ([4]; value in parentheses): 36.0 mL/day/kg

Reference: patent US20230031280A1, “GLP-2 FUSION POLYPEPTIDES AND USES FOR TREATING AND PREVENTING GASTROINTESTINAL CONDITIONS” (SHIRE-NPS PHARMACEUTICALS, INC., priority 2017, published 2023)
